From paper PMC2651826 (Biochemistry, 2008) come the findings set out here.

For data set [1], the target named is RS1 from retinal membrane extracts (bovine (endogenous in retinal membranes)). The data set can be described thus: non-reducing SDS gel electrophoresis with western blot.
The target of data set [2] is T1, wild-type RS1 (retinoschisin), secreted from HEK 293 cells (human), O15537.
T1 chain: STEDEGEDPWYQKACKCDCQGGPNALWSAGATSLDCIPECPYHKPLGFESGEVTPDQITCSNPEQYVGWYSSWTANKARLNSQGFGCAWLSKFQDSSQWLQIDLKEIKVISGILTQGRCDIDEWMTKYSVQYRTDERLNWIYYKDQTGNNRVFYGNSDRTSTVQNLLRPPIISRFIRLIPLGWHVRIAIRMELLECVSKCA
The data set is described as above. The conditions noted are these: remark: other sources report otherwise.

The target of data set [3] is T2, RS1 secreted from Weri-retinoblastoma cells (human (endogenous in Weri-Rb1)), O15537.
T2 chain: T1 chain
The data set is described as above. The note with it: remark: other sources report otherwise.

Data set [4] concerns the molecule itself. The data set is described as above.
Data set [5] deals with T3, recombinant RS1 secreted from stably transformed Sf21 insect cells (human), O15537.
T3 chain: T1 chain
As to the kind of experiment: non-reducing SDS gel electrophoresis with Coomassie Blue staining. The note with it: remark: other sources report otherwise.

Data set [6] deals with T3, recombinant RS1 secreted from stably …. As to the kind of experiment: non-reducing SDS gel electrophoresis with western blot. The note with it: remark: other sources report otherwise.

Substitutions are numbered along the chain they refer to. Names and notes keep the numbering of the source.

For orientation: stoichiometry N means a count of units in the complex or per binding partner. As to “RS1 from retinal membrane extracts (natural protein)”, the stoichiometry N in data set [1] was determined as 8.

B1: wild-type RS1 (retinoschisin), secreted from HEK 293 cells, O15537 24-224 (natural protein)
chain: T1 chain
B1 returned a stoichiometry N in data set [2] of 8.

B2: RS1 secreted from Weri-retinoblastoma cells, O15537 24-224 (natural protein)
chain: T1 chain
Take B2: the stoichiometry N in data set [3] was found to be 8.

B3: RS1 C59S/C223S double cysteine mutant (natural protein, human, UniProt O15537 24-224, looked up)
chain: T1 chain with C36S, C200S
B3: the “stoichiometry N” value in data set [4] worked out at 2.

B4: recombinant RS1 secreted from stably transformed Sf21 insect cells, O15537 24-224 (natural protein)
chain: T1 chain
For B4, the stoichiometry N in data set [5] and in data set [6] was 8 each time.
